One data set deals with T1, TCRA_S02_2E5 (Ophiostoma novo-ulmi (engineered)).
T1 chain: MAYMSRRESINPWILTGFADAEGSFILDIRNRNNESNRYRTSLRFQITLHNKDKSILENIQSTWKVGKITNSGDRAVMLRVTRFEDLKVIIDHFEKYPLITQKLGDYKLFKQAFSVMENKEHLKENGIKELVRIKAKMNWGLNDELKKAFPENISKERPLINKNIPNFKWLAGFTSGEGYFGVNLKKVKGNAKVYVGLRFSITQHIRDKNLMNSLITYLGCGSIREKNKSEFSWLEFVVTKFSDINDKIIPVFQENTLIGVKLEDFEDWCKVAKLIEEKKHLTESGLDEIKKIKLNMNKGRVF
Nature of the data set: flow; yeast surface display titration; Example 3 text names the variant as TCRA_S02_2E5_RD1_08. The conditions noted are these: label: fluorescent dye (Alexa Fluor 647) in yeast display assays. The procedure:
(§1) Samples of yeast displaying each LHE variant were independently incubated with increasing concentrations of fluorescent dye-labeled synthetic DNA substrates (y-axis). An antibody to a C-terminal epitope was also included (x-axis) such that DNA binding activity could be normalized to the amount of LHE protein expressed on the yeast surface, creating the co-linear pattern, with higher signal in the y-axis per x-axis signal where affinity is greater.
The LHE containing the engineered DNA recognition interfaces for the TCRA_S02 (SEQ ID NO: 3) target was tested for affinity, specificity, and toxicity characteristics. Affinity was tested by independently incubating yeast displaying the TCRA_S02_2E5_RD1_08 variant, (SEQ ID NO: 7, encoding SEQ ID NO: 8) with DNA substrates containing its target sequences at various concentrations. See FIG. 6 showing the affinity properties of this variant relative to the wild-type I-Onul protein. […] Toxicity was analyzed by in vitro transcribing each LHE into mRNA and transfecting primary human T cells by electroporation, followed by flow cytometry analysis of the survival of the cells relative to transfection with a control mRNA encoding a blue fluorescent protein (BFP). […]

A further data set addresses T2, I-OnuI wild type (OnuWT) (Ophiostoma novo-ulmi).
T2 chain: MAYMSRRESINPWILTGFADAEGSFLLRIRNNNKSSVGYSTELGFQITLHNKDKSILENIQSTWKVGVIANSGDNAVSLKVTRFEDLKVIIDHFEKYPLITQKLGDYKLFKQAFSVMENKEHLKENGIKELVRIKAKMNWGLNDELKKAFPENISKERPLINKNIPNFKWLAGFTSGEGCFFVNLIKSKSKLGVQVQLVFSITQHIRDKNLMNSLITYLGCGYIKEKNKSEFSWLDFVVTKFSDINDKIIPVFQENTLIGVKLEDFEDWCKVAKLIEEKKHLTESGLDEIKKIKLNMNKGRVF
Nature of the data set: flow; yeast surface display titration. The conditions noted are these: label: Alexa Fluor 647. The procedure:
as §1
The LHE containing the engineered DNA recognition interfaces for the TCRA_S02 (SEQ ID NO: 3) target was tested for affinity, specificity, and toxicity characteristics. Affinity was tested by independently incubating yeast displaying the TCRA_S02_2E5_RD1_08 variant, (SEQ ID NO: 7, encoding SEQ ID NO: 8) with DNA substrates containing its target sequences at various concentrations. See FIG. 6 showing the affinity properties of this variant relative to the wild-type I-Onul protein. […] Toxicity was analyzed by in vitro transcribing each LHE into mRNA and transfecting primary human T cells by electroporation, followed by flow cytometry analysis of the survival of the cells relative to transfection with a control mRNA encoding a blue fluorescent protein (BFP).

Drawing on US20160130569, “A LAGLIDADG HOMING ENDONUCLEASE CLEAVING THE T CELL RECEPTOR ALPHA GENE AND USES THEREOF” (CELLECTIS, published 2016), this text covers Kd for two molecules.

B1: TCRA_S02 (dsDNA)
DNA 1: TGTCTGCCTATTCACCGATTTT
DNA 2: AAAATCGGTGAATAGGCAGACA
Regarding B1, the equilibrium dissociation constant (Kd) – broadly, the constant that tells how readily two partners part at equilibrium – with TCRA_S02_2E5 was roughly 0.09 nM.

B2: I-OnuI native target (dsDNA)
DNA 1: TTTCCACTTATTCAACCTTTTA
DNA 2: TAAAAGGTTGAATAAGTGGAAA
In the data set with I-OnuI wild type (OnuWT), B2 yielded a dissociation constant Kd of roughly 0.08 nM.
